Experiments:
HA-tagged Ran = HA-tagged Ran (UniProt P62826); assay: co-immunoprecipitation in tsA-201 cells, HA antibody pull-down of HA-Ran, anti-FLAG Western blot quantified
GST-Ran = GST-Ran (UniProt P62826); assay: GST pull-down, GST-Ran bait, lysate of tsA201 cells with FLAG-MOG1 as prey, anti-FLAG Western blot quantified

reduction of binding to Ran compared with the wild-type MOG1 (HA-tagged Ran): 92% | reduction of binding to Ran compared with the wild-type MOG1 (GST-Ran): 95%
Substance: E50K MOG1 mutant tagged with FLAG (from UniProt Q9HD47 1-186)
